Data on 1 molecule can be found in patent US20100081638A1 (KOREA RESEARCH INSTITUTE OF BIOSCIENCE AND BIOTECHNOLOGY, published 2010).

The target of the assay is T1, focal adhesion kinase (FAK) (UniProt Q05397 2-1052).
T1 construct: Endogenous protein in lysates of SNU449 cell lines
Put plainly: physical association in SNU449 cell lysates with or without tiarellic acid (FIG. 10; method not described).

T1 sequence (Q05397 2-1052 limits assumed): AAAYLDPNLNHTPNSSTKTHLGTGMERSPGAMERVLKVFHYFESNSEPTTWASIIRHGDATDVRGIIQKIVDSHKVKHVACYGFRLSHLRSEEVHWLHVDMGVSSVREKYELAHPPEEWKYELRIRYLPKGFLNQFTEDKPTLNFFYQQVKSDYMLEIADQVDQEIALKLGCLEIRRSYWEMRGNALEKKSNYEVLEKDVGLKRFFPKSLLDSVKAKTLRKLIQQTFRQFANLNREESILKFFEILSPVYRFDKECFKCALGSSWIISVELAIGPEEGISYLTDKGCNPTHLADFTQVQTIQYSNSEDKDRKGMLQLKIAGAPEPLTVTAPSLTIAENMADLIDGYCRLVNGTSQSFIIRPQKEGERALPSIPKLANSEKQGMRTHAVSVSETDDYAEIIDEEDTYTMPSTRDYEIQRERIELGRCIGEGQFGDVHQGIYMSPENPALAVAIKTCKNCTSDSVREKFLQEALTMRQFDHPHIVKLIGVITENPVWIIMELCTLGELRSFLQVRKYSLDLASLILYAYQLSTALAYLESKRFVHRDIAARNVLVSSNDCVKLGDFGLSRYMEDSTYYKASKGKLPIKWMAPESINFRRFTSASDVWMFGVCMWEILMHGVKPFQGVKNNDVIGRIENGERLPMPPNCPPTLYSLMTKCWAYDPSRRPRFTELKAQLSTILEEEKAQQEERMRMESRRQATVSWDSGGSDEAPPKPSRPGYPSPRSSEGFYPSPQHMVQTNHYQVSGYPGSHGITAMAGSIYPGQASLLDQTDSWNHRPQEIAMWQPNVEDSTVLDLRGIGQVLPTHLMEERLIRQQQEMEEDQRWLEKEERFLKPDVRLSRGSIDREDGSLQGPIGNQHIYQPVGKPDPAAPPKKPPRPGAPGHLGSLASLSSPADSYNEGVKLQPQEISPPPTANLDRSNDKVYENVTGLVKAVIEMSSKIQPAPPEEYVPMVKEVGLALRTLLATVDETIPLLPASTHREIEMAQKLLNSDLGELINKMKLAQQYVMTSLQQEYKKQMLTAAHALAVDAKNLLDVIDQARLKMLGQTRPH

B1: p130Cas (other, UniProt P56945 1-870, looked up)
chain: MNHLNVLAKALYDNVAESPDELSFRKGDIMTVLEQDTQGLDGWWLCSLHGRQGIVPGNRLKILVGMYDKKPAGPGPGPPATPAQPQPGLHAPAPPASQYTPMLPNTYQPQPDSVYLVPTPSKAQQGLYQVPGPSPQFQSPPAKQTSTFSKQTPHHPFPSPATDLYQVPPGPGGPAQDIYQVPPSAGMGHDIYQVPPSMDTRSWEGTKPPAKVVVPTRVGQGYVYEAAQPEQDEYDIPRHLLAPGPQDIYDVPPVRGLLPSQYGQEVYDTPPMAVKGPNGRDPLLEVYDVPPSVEKGLPPSNHHAVYDVPPSVSKDVPDGPLLREETYDVPPAFAKAKPFDPARTPLVLAAPPPDSPPAEDVYDVPPPAPDLYDVPPGLRRPGPGTLYDVPRERVLPPEVADGGVVDSGVYAVPPPAEREAPAEGKRLSASSTGSTRSSQSASSLEVAGPGREPLELEVAVEALARLQQGVSATVAHLLDLAGSAGATGSWRSPSEPQEPLVQDLQAAVAAVQSAVHELLEFARSAVGNAAHTSDRALHAKLSRQLQKMEDVHQTLVAHGQALDAGRGGSGATLEDLDRLVACSRAVPEDAKQLASFLHGNASLLFRRTKATAPGPEGGGTLHPNPTDKTSSIQSRPLPSPPKFTSQDSPDGQYENSEGGWMEDYDYVHLQGKEEFEKTQKELLEKGSITRQGKSQLELQQLKQFERLEQEVSRPIDHDLANWTPAQPLAPGRTGGLGPSDRQLLLFYLEQCEANLTTLTNAVDAFFTAVATNQPPKIFVAHSKFVILSAHKLVFIGDTLSRQAKAADVRSQVTHYSNLLCDLLRGIVATTKAAALQYPSPSAAQDMVERVKELGHSTQQFRRVLGQLAAA
notes: Endogenous protein in lysates of SNU449 cell lines
For the molecule B1, the binding result is “binds”.
